Source: article PMC13278974, “Nucleophagy removes cytotoxic trapped PARP1” (Nature Cell Biology, 2026)

B1: His–TEX264 (34-313) (domain or fragment, UniProt Q9Y6I9 34-313, looked up)
chain: VEVSAGSPPIRNVTVAYKFHMGLYGETGRLFTESCSISPKLRSIAVYYDNPHMVPPDKCRCAVGSILSEGEESPSPELIDLYQKFGFKVFSFPAPSHVVTATFPYTTILSIWLATRRVHPALDTYIKERKLCAYPRLEIYQEDQIHFMCPLARQGDFYVPEMKETEWKWRGLVEAIDTQVDGTGADTMSDTSSVSLEVSPGSRETSAATLSPGASSRGWDDGDTRSEHSYSESGASGSSFEELDLEGEGPLGESRLDPGTEPLGTTKWLWEPTAPEKGKE
notes: the printed UniProt entry Q9Y6I9 is the human protein; The longest recombinant TEX264 described in the methods; also called TEX264^WT (variant 1); source: E. coli Rosetta (DE3), pCold cold shock system, purified (HiTrap Q FF, SEC Superdex 200)
B2: His–TEX264–Cter (186-313) (domain or fragment, UniProt Q9Y6I9 186-313, looked up)
chain: RQGDFYVPEMKETEWKWRGLVEAIDTQVDGTGADTMSDTSSVSLEVSPGSRETSAATLSPGASSRGWDDGDTRSEHSYSESGASGSSFEELDLEGEGPLGESRLDPGTEPLGTTKWLWEPTAPEKGKE
notes: also called C-terminal half of TEX264; variant 2

Biological target: T1, His–PARP1, full length, recombinant (called GFP-PARP1 / PARP1–GFP in the results and legend) (UniProt P09874 1-1014)
T1 construct: PARP1, full length, cloned into NcoI and BamHI sites of pNIC28; The methods describe only His–PARP1 from pNIC28 with no GFP; Whether GFP was on the protein is open; It was held on PARP1-trap beads; also called pNIC28–PARP1; source: E. coli Rosetta (DE3), purified (HisTrap, SEC Superdex 200)
T1 sequence (P09874 whole entry): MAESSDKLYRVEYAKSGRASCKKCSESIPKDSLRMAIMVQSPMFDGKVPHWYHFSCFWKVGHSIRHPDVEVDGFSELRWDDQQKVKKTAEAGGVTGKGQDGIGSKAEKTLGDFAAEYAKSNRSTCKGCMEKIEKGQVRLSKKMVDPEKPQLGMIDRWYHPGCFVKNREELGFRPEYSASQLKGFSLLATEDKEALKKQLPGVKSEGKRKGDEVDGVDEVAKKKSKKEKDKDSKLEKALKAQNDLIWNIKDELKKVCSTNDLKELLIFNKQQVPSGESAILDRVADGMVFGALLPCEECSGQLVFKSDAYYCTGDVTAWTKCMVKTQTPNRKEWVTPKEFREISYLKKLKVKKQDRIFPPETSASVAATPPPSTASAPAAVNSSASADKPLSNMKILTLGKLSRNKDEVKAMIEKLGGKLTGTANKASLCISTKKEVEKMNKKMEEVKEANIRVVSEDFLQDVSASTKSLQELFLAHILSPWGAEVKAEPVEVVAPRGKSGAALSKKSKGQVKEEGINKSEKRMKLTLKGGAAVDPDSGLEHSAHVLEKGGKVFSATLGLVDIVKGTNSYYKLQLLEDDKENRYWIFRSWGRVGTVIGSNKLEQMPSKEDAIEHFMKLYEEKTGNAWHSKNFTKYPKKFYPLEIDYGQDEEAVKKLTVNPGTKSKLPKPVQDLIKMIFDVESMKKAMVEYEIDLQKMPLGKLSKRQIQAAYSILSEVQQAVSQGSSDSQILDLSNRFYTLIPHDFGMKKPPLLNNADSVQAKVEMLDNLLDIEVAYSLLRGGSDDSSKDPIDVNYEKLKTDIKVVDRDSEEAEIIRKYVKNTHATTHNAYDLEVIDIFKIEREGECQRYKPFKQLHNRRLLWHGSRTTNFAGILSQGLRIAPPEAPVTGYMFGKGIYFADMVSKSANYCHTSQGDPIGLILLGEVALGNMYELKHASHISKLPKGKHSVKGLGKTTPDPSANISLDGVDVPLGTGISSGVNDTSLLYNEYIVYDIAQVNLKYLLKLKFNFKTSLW
Test: pull-down; PARP1 (2.5 µM) held on PARP1-trap beads, TEX264 (2.5 µM) added in 50 mM HEPES pH 7.4, 500 mM NaCl, 0.01% Triton X-100, 1 mM TCEP, 2 h at 4 °C; washes with 0.1% Triton X-100; western blot
Details: both partners purified

| Binder | binding result |
| --- | --- |
| B1 | binds |
| B2 | binds |
